Assay results as given in article PMC11041768, “Broad sialic acid usage amongst species D human adenovirus” (npj Viruses, 2023).

Columns and labels:
[1] = biological target: T1, HAdV-D30 fiber-knob protein (Human adenovirus 30, UniProt M0QTV3); experiment: X-ray crystal structure of soaked crystal; type: binding; conditions: 10 mM soak; conserved apical pocket; mixture of alpha and beta anomers
T1 construct: gene L5; trimer

[2] = biological target: T2, HAdV-D29 fiber-knob protein (Human adenovirus 29, UniProt E1CIQ3); experiment: X-ray crystal structure of soaked crystal; type: binding; conditions: 10 mM soak; conserved apical pocket; mixture of alpha and beta anomers
T2 construct: gene L5; trimer

[3] = biological target: T3, HAdV-D53 fiber-knob protein (Human adenovirus 53, UniProt E5RWD1); experiment: X-ray crystal structure of briefly soaked crystal; type: binding; conditions: 10 mM, very short soak; conserved apical pocket; beta anomer modelled
T3 construct: gene L5; trimer

[4] = biological target: T4, HAdV-D25 fiber-knob protein (Human adenovirus 25, UniProt M0QUM1); experiment: X-ray crystal structure of soaked crystal; type: binding; conditions: 10 mM soak; conserved apical pocket; mixture of alpha and beta anomers
T4 construct: gene L5; trimer

[5] = biological target: HAdV-D15 fiber knob protein (human adenovirus D15); experiment: crystal structure; apo crystals of recombinant fiber knob protein; Pact Premier Screen, 18 °C, data at 100 K; trimer seen in the structure
[6] = biological target: HAdV-D24 fiber knob protein (human adenovirus D24); experiment: as above
[7] = biological target: HAdV-D29 fiber knob protein (human adenovirus D29); experiment: as above
[8] = biological target: HAdV-D30 fiber knob protein (human adenovirus D30); experiment: as above
[9] = biological target: HAdV-D32 fiber knob protein (human adenovirus D32); experiment: as above
[10] = biological target: HAdV-D53 fiber knob protein (human adenovirus D53); experiment: as above

With `CC(=O)N[C@H]1[C@H]([C@H](O)[C@H](O)CO)OC(O)(C(=O)O)C[C@@H]1O` (mixture of isomers) [sialic acid] as the compound, how does the “X-ray crystal structure of soaked crystal” value [1] read?
Its value is “four structures of HAdV-D25, D29, D30 and D53 in complex with sialic acid”.

What about the “X-ray crystal structure of soaked crystal” value [2] of the same compound?
The value was “four structures of HAdV-D25, D29, D30 and D53 in complex with sialic acid”.

And the “X-ray crystal structure of briefly soaked crystal” value [3]?
Its value is “short soak allowed only two of four trimers in the asymmetric unit to bind β-sialic acid”.

And the “X-ray crystal structure of soaked crystal” value [4]?
The value was “four structures of HAdV-D25, D29, D30 and D53 in complex with sialic acid”.

For “HAdV-D15 fiber knob protein (domain or fragment)”, which stoichiometry N [5] is on record?
The stoichiometry N was 3.

With “HAdV-D24 fiber knob protein (domain or fragment)” as the compound, how does the stoichiometry N [6] read?
The stoichiometry N was 3.

For “HAdV-D29 fiber knob protein (domain or fragment)”, which stoichiometry N [7] is on record?
The stoichiometry N was 3.

For “HAdV-D30 fiber knob protein (domain or fragment)”, which stoichiometry N [8] is on record?
Its stoichiometry N is 3.

How did the stoichiometry N [9] turn out when “HAdV-D32 fiber knob protein (domain or fragment)” was run?
Its stoichiometry N is 3.

How did the stoichiometry N [10] turn out when “HAdV-D53 fiber knob protein (domain or fragment)” was run?
Its stoichiometry N is 3.
